One data set has as its target T1, SarA (Staphylococcus aureus, UniProt Q7A1N5 1-124).
T1 sequence: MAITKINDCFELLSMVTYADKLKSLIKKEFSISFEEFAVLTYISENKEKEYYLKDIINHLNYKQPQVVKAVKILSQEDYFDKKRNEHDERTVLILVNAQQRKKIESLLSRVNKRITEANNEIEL
The data set can be described thus: EMSA.

In another data set the target is SarA C9A (Staphylococcus aureus, UniProt Q7A1N5 1-124, C9A). The data set can be described thus: EMSA.

Here are results for one molecule from article PMC2879156.

B1: agr B1/B2 (dsDNA)
DNA 1: ATGTTAAAATATTAAATACAAATTACATTTAACAGTTAAGTATTTATTTCCTACAGTTA
DNA 2: TAACTGTAGGAAATAAATACTTAACTGTTAAATGTAATTTGTATTTAATATTTTAACAT
Consider B1, for which the binding result in the data set with SarA and in the data set with SarA C9A was “binds” throughout.
